Bridge positions count the residues as written; N and C are the ends. Square brackets hold non-standard residues; d marks the D form. Ends that are not written are not given here. * marks the point of attachment. Acetyl(2-(4-imidazolyl)) = O=C(Cc1c[nH]cn1)*; Aib = CC(C)(N)C(=O)O
T1: human GIP receptor (human, UniProt P48546 22-466)
T1 sequence (looked up): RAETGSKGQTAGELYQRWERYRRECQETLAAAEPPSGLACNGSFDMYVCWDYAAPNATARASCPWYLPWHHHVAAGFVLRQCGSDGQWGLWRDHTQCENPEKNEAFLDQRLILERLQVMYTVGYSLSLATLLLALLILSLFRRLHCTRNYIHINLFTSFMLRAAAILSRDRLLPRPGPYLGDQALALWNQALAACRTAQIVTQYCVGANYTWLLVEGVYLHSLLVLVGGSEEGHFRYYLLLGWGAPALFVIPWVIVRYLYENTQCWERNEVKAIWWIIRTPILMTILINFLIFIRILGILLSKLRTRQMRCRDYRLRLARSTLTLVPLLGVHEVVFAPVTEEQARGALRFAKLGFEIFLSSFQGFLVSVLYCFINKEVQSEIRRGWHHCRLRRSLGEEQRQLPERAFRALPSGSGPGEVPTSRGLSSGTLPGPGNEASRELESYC

B1: triple agonist of SEQ ID NO: 88 (peptide)
peptide: {Acetyl(2-(4-imidazolyl))}-[Aib]QGTFTSDYSKYLDEKRQKEFVQWLLNTKC
modifications: bridge 15-19
B2: triple agonist of SEQ ID NO: 99 (peptide)
peptide: Y[Aib]QGTFTSDYSKALDEKAAKDFVNWLLDHHPSSGQPPPSC
modifications: bridge 16-20
B3: triple agonist of SEQ ID NO: 98 (peptide)
peptide: Y[Aib]QGTFTSDYSKALDEKAAKEFVNWLLDHHPSSGQPPPSC
modifications: bridge 16-20
B4: triple agonist of SEQ ID NO: 87 (peptide)
peptide: {Acetyl(2-(4-imidazolyl))}-[Aib]QGTFTSDYSIAMDEIHQKDFVNWLLNTC
modifications: bridge 15-19
B5: triple agonist of SEQ ID NO: 100 (peptide)
peptide: Y[Aib]QGTFTSDYSKALDEKAAKEFVQWLLDQHPSSGQPPPSC
modifications: bridge 16-20
B6: triple agonist of SEQ ID NO: 94 (peptide)
peptide: {Acetyl(2-(4-imidazolyl))}-[Aib]QGTFTSDYSIAMDEIHQKDFVNWLLNTKC
modifications: bridge 15-19
B7: triple agonist of SEQ ID NO: 18 (peptide)
peptide: [Acetyl(2-(4-imidazolyl))]GQGTFTSDLSKQMDSERAREFIEWLKNTGPSSGAPPPSHG
B8: triple agonist of SEQ ID NO: 19 (peptide)
peptide: [Acetyl(2-(4-imidazolyl))]GQGTFTSDLSIQYDSEHQRDFIEWLKDTGPSSGAPPPSHG
B9: triple agonist of SEQ ID NO: 93 (peptide)
peptide: {Acetyl(2-(4-imidazolyl))}-[Aib]QGTFTSDYSKYLDEKRQKEFVNWLLAQKC
modifications: bridge 15-19
B10: triple agonist of SEQ ID NO: 89 (peptide)
peptide: {Acetyl(2-(4-imidazolyl))}-[Aib]QGTFTSDYSKYLDEKRQKEFVQWLLDTKC
modifications: bridge 15-19
B11: triple agonist of SEQ ID NO: 13 (peptide)
peptide: [Acetyl(2-(4-imidazolyl))]GEGTFISDYSIQLDEIAVQDFVEWLLAQKPSSGAPPPSHG
B12: triple agonist of SEQ ID NO: 85 (peptide)
peptide: {Acetyl(2-(4-imidazolyl))}-[Aib]QGTFTSDYSIAMDEIHQKDFVNWLLAQC
modifications: bridge 15-19
B13: triple agonist of SEQ ID NO: 17 (peptide)
peptide: [Acetyl(2-(4-imidazolyl))]GQGTFTSDLSKQMDEERAREFIEWLLAQKPSSGAPPPSHG
B14: triple agonist of SEQ ID NO: 12 (peptide)
peptide: [Acetyl(2-(4-imidazolyl))]GEGTFISDLSKYMDEQAVQLFVEWLMAGGPSSGAPPPSHG
B15: triple agonist of SEQ ID NO: 97 (peptide)
peptide: Y[Aib]QGTFTSDYSKYLDEKRAKEFVQWLLDCHPSSGQPPPS
modifications: bridge 16-20
B16: triple agonist of SEQ ID NO: 14 (peptide)
peptide: [Acetyl(2-(4-imidazolyl))]GQGTFTSDYSIQLDEIAVRDFVEWLKNGGPSSGAPPPSHG
B17: triple agonist of SEQ ID NO: 86 (peptide)
peptide: {Acetyl(2-(4-imidazolyl))}-[Aib]QGTFTSDYSKYLDEKRQKEFVNWLLAQC
modifications: bridge 15-19
B18: triple agonist of SEQ ID NO: 102 (peptide)
peptide: Y[Aib]QGTFTSDYSKALDEKAAKDFVNWLLDQHPSSGQPPPSC
modifications: bridge 16-20
B19: triple agonist of SEQ ID NO: 96 (peptide)
peptide: Y[Aib]QGTFTSDYSKYLDEKRAKEFVQWLLDHCPSSGQPPPS
modifications: bridge 16-20
B20: triple agonist of SEQ ID NO: 2 (peptide)
peptide: H[Aib]QGTFTSDVSSYLDGQAQKEFIAWLVKGC
B21: triple agonist of SEQ ID NO: 11 (peptide)
peptide: [Acetyl(2-(4-imidazolyl))]GEGTFTSDLSKYLDSRRQQLFVQWLKAGGPSSGAPPPSHG
B22: triple agonist of SEQ ID NO: 101 (peptide)
peptide: Y[Aib]QGTFTSDYSKALDEKAAKEFVNWLLDQHPSSGQPPPSC
modifications: bridge 16-20
B23: triple agonist of SEQ ID NO: 16 (peptide)
peptide: [Acetyl(2-(4-imidazolyl))]GQGTFTSDLSKQMDSEAQQLFIEWLKNGGPSSGAPPPSHG
B24: triple agonist of SEQ ID NO: 95 (peptide)
peptide: Y[Aib]QGTFTSDYSKYLDEKRAKEFVQWLLCHHPSSGQPPPS
modifications: bridge 16-20
B25: triple agonist of SEQ ID NO: 90 (peptide)
peptide: {Acetyl(2-(4-imidazolyl))}-[Aib]EGTFTSDYSIAMDEIHQKDFVNWLLAQKC
modifications: bridge 15-19
B26: triple agonist of SEQ ID NO: 10 (peptide)
peptide: H[Aib]QGTFTSDVSKYLDGQAAQEFVAWLLAGGGPSSGAPPPSC
B27: triple agonist of SEQ ID NO: 92 (peptide)
peptide: {Acetyl(2-(4-imidazolyl))}-[Aib]QGTFTSDYSIAMDEIHQKDFVNWLLAQKC
modifications: bridge 15-19
B28: triple agonist of SEQ ID NO: 91 (peptide)
peptide: {Acetyl(2-(4-imidazolyl))}-[Aib]EGTFTSDYSIAMDEIHQKDFVDWLLAEKC
modifications: bridge 15-19

What follows are binders tested against T1, human GIP receptor (assay: cell-based or functional assay).

Binder	In vitro activity compared to native-type peptide (%), vs GIP
B1	< 0.1%
B2	57.7%
B3	47.1%
B4	< 0.1%
B5	118%
B6	< 0.1%
B7	< 0.1%
B8	< 0.1%
B9	0.7%
B10	< 0.1%
B11	< 0.1%
B12	0.3%
B13	< 0.1%
B14	< 0.1%
B15	2.6%
B16	< 0.1%
B17	0.2%
B18	58%
B19	5.2%
B20	< 0.1%
B21	< 0.1%
B22	40.1%
B23	< 0.1%
B24	< 0.1%
B25	< 0.1%
B26	< 0.1%
B27	0.4%
B28	0.3%

Each binder was assayed against human GCG receptor (human, UniProt P47871 26-477) (assay: cell-based or functional assay).
human GCG receptor, sequence (P47871 26-477): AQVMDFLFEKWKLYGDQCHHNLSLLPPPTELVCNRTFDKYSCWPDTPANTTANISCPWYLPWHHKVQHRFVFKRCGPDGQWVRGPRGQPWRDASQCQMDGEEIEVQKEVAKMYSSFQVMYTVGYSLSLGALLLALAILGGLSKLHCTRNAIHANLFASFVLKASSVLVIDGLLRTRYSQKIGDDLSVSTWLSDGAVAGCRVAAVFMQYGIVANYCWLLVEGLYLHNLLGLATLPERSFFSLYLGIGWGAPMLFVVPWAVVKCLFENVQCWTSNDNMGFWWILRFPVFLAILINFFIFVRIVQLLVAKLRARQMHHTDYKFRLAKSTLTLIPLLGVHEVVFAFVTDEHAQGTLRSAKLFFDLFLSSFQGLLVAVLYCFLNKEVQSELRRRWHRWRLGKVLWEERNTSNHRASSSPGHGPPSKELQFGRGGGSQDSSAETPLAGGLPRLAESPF

Binder	In vitro activity compared to native-type peptide (%), vs Glucagon
B1	0.3%
B2	14.9%
B3	8.2%
B4	< 0.1%
B5	12.7%
B6	< 0.1%
B7	< 0.1%
B8	< 0.1%
B9	0.3%
B10	0.7%
B11	< 0.1%
B12	< 0.1%
B13	< 0.1%
B14	< 0.1%
B15	62.8%
B16	< 0.1%
B17	0.4%
B18	29.5%
B19	195%
B20	< 0.1%
B21	< 0.1%
B22	13.9%
B23	< 0.1%
B24	0.4%
B25	< 0.1%
B26	< 0.1%
B27	< 0.1%
B28	16.8%

These binders were tested against human GLP-1 receptor (human, UniProt P43220 24-463) (assay: cell-based or functional assay).

Binder	In vitro activity compared to native-type peptide (%), vs GLP-1
B1	9.6%
B2	20.9%
B3	28.1%
B4	0.9%
B5	42.2%
B6	0.5%
B7	< 0.1%
B8	< 0.1%
B9	5.7%
B10	7.1%
B11	< 0.1%
B12	4.3%
B13	0.2%
B14	0.4%
B15	10.5%
B16	28%
B17	28.4%
B18	23.3%
B19	34.4%
B20	5.9%
B21	1.4%
B22	23.2%
B23	2.1%
B24	2.1%
B25	7.4%
B26	46%
B27	0.8%
B28	31.9%

From US20230381333A1 (HANMI PHARM, published 2023)
